These results are taken from patent US20230257447A1 (published 2023).

For the experiment, the target named is T1, CMV phosphoprotein pp65 (SEQ 34) peptide on HLA-A*11:01 (human).
T1 peptide: ATVQGQNLK
Nature of the experiment: multimer staining.

B1: C45 (TCR, V domains shown)
Valpha: DQQVKQNSPSLSVQEGRISILNCDYTNSMFDYFLWYKKYPAEGPTFLISISSIKDKNEDGRFTVFLNKSAKHLSLHIVPSQPGDSAVYFCAASAWNTGNQFYFGTGTSLTVIP
Vbeta: KAGVTQTPRYLIKTRGQQVTLSCSPISGHRSVSWYQQTPGQGLQFLFEYFSETQRNKGNFPGRFSGRQFSNSRSEMNVSTLELGDSALYLCASSLAGYKQETQYFGPGTRLLVL
For B1, the binding result is reported as “recognises”.

B2: C44 (TCR, V domains shown)
Valpha: AQTVTQSQPEMSVQEAETVTLSCTYDTSESDYYLFWYKQPPSRQMILVIRQEAYKQQNATENRFSVNFQKAAKSFSLKISDSQLGDAAMYFCAYRAFYTGANSKLTFGKGITLSVRP
Vbeta: DAGVTQSPTHLIKTRGQQVTLRCSPKSGHDTVSWYQQALGQGPQFIFQYYEEEERQRGNFPDRFSGHQFPNYSSELNVNALLLGDSALYLCASSFFRGEGNQPQHFGDGTRLSIL
Regarding B2, the binding result is reported as “recognises”.
